According to patent US20100239597A1 (NORTHWESTERN UNIVERSITY, published 2010):
Residue numbers refer to the chain shown, from its start.

B1: 4b-B10 Fab (Fab, V domains shown)
VH: QVTLKESGPALVKPTQTLTLTCTLSGFSLSTSGMGVGWIRQPPGKALEWLAHIWWDDDKSYNPSLKSRLTISKDTSKNQVVLTMTNMDPVDTATYYCARRQLGAHWLDAMDYWGQGTTVTVSS
VL: DVVMTQSPLSLPVTPGEPASISCRSSQSILHSNGNTYLEWYLQKPGQSPQLLIYKVSNRFSGVPDRFSGSGSGTDFTLKISRVEAEDVGVYYCLQTTRVPLTFGQGTKLEIKR
B2: 4a-E10 Fab (Fab, V domains shown)
VH: B1 VH with A104F, H105Q, W106S, L107T
VL: B1 VL
B3: 4b-A12 Fab (Fab, V domains shown)
VH: B1 VH with A104P, H105E, W106P, L107Q
VL: B1 VL
B4: 4b-D4 Fab (Fab, V domains shown)
VH: B1 VH with A104M, H105A, W106T, L107P
VL: B1 VL
B5: 4a-D5 Fab (Fab, V domains shown)
VH: B1 VH with A104D, H105N, W106V, L107A
VL: B1 VL
B6: 4a-C9 Fab (Fab, V domains shown)
VH: B1 VH with A104Q, H105A, W106G, L107H
VL: B1 VL
B7: 20C2-9A Fab (Fab, V domains shown)
VH: B1 VH with L24F, A104L, H105R, W106S, L107I
VL: B1 VL with L94V, T97S, R98L
B8: 20C2-12A Fab (Fab, V domains shown)
VH: B1 VH with L24F, A104L, H105R, W106S, L107I
VL: B1 VL with T96S, T97S, R98L
B9: 20C2-7A Fab (Fab, V domains shown)
VH: B1 VH with L24F, A104L, H105R, W106S, L107I
VL: B1 VL with Q95N, T96S, R98T
B10: 20C2-18A Fab (Fab, V domains shown)
VH: B1 VH with L24F, A104L, H105R, W106S, L107I
VL: B1 VL with L94M, T96S, T97S, R98F
B11: 20C2-8A Fab (Fab, V domains shown)
VH: B1 VH with L24F, A104L, H105R, W106S, L107I
VL: B1 VL
B12: 20C2-13A Fab (Fab, V domains shown)
VH: B1 VH with L24F, A104L, H105R, W106S, L107I
VL: B1 VL with T97S, R98N
B13: 20C2-1A Fab (Fab, V domains shown)
VH: B1 VH with L24F, A104L, H105R, W106S, L107I
VL: B1 VL with L94F, T96A, T97S
B14: 20C2-9A IgG1 (antibody, V domains shown)
VH: B1 VH with L24F, A104L, H105R, W106S, L107I
VL: DVVMTQSPLSLPVTPGEPASISCRSSQSILHSNGNTYLEWYLQKPGQSPQLLIYKVSNRFSGVPDRFSGSGSGTDFTLKISRVEAEDVGVYYCVQTSLVPLTFGQGTKLEIK
notes: also called SJ-p2-51
B15: 20C2-23A IgG1 (antibody, V domains shown)
VH: B1 VH with L24F, A104L, H105R, W106S, L107I
VL: B14 VL with V94H, T96S, L98K
notes: also called 4P1-40
B16: 20C2-13A IgG1 (antibody, V domains shown)
VH: B1 VH with L24F, A104L, H105R, W106S, L107I
VL: B14 VL with V94L, L98N
notes: also called 4p1-20; 4P1-20
B17: 20C2-20A IgG1 (antibody, V domains shown)
VH: B1 VH with L24F, A104L, H105R, W106S, L107I
VL: B14 VL with V94F, T96G, V99F, L101P, T102V
notes: also called SJ-p3-15
B18: 20C2-18A IgG1 (antibody, V domains shown)
VH: B1 VH with L24F, A104L, H105R, W106S, L107I
VL: B14 VL with V94M, T96S, L98F
notes: also called SJ-p1-9M
B19: 20C2-10A IgG1 (antibody, V domains shown)
VH: B1 VH with L24F, A104L, H105R, W106S, L107I
VL: B14 VL with V94F, T96G, L98R, V99L, L101V, T102S
notes: also called SJ-p3-33
B20: 20C2-12A IgG1 (antibody, V domains shown)
VH: B1 VH with L24F, A104L, H105R, W106S, L107I
VL: B14 VL with V94L, T96S
notes: also called 4P1-32
B21: Hu20C2A3 (veneered version of clone A3, IgG2m4 isotype) (antibody, V domains shown)
VH: B1 VH with A10G, V12L, I39F, A46G, M84I, M87V, A104T, H105R, W106G, L107T
VL: B1 VL with S7T, E17Q
notes: To be checked against the listing; also called Hu20C2A3 IgG2m4

molecular target: T1, biotinylated ADDL (bADDL) (UniProt P05067 672-713, N-terminal biotin); assay: BIACORE, Fab against bADDL
T1 construct: domain: Aβ1-42; Panning and ELISA speak of 10% biotinylated ADDL; also called bADDLs; high molecular weight bADDL

In order of falling Kd:
1. B3  154 nM
2. B1  62.8 nM
3. B4  18.6 nM
4. B2  18.5 nM
5. B6  8.43 nM
6. B5  1.17 nM

molecular target: T1, biotinylated ADDL (bADDL); assay: BIACORE, bADDL as antigen; Fab

In order of falling Kd:
1. B12  567 nM
2. B9  435 nM
3. B8  238 nM
4. B10  85 nM
5. B13  85 nM
6. B7  40 nM
7. B11  13 nM

molecular target: T1, biotinylated ADDL (bADDL); assay: BIACORE, bADDL as antigen; IgG1#2

In order of falling Kd:
1. B15  0.066 nM
2. B14  0.002 nM

molecular target: T1, biotinylated ADDL (bADDL); assay: BIACORE, bADDL as antigen; IgG1#1

In order of rising Kd:
1. B20  0.015 nM
2. B15  0.085 nM
3. B18  0.149 nM
4. B16  0.764 nM
5. B17  6.9 nM
6. B19  7.7 nM

molecular target: T2, Aβ40 monomer (UniProt P05067 672-711); assay: titration ELISA on Aβ40 monomer, A450 nm; Hu20C2A3 produced in Pichia
T2 construct: domain: Aβ(1-40); also called Aβ monomer; amyloid beta (1-40) peptide

In the case of B21, the “EC50 (read off the curve)” value is reported as about 0.04 µg/mL.

molecular target: T2, Aβ40 monomer; assay: titration ELISA on Aβ40 monomer, A450 nm; Hu20C2A3 produced in CHO

In the case of B21, the “EC50 (read off the curve)” value is reported as about 0.04 µg/mL.

Molecular target: T3, biotin-Aβ1-20 (UniProt P05067 672-691, biotin (site not stated))
T3 construct: domain: Aβ1-20; Monomeric Aβ fragment used as BIACORE antigen; also called biotinylated-Aβ1-20
T3 peptide (looked up): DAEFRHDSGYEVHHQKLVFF
Assay: BIACORE, Fab against biotinylated-Aβ1-20

In order of falling Kd:
1. B3  10.1 nM
2. B1  7.43 nM
3. B4  4.87 nM
4. B5  3.91 nM
5. B2  3.6 nM
6. B6  2.46 nM

molecular target: T4, Aβ-derived diffusible ligands (ADDLs) (UniProt P05067 672-713); assay: titration ELISA on captured ADDL, A450 nm; Hu20C2A3 produced in CHO
T4 construct: domain: Aβ1-42
Experimental: (§1) Affinity maturation was carried out to improve affinity and improve preferential binding to ADDL. To evaluate ADDL binding affinity of the humanized antibodies, BIACORE™ and titration ELISAs were conducted as disclosed herein. Briefly, Streptavidin-coated, 96-well microtiter plates (Sigma, St. Louis, Mo.) were coated with 10% biotinylated ADDL antigen (1 μM). A series of 2-fold dilutions of purified antibody, starting at 500 ng/mL was added to the ADDL captured plates and the plates were incubated for 2 hours at 25° C. After washing five times with PBS solution using a plate washer (Bio-Tek, Winooski, Va.), polyclonal goat anti-human kappa light chain antibody (Biomeda, Foster City, Calif.) was added at a 1/2000 dilution in 3% non-fat milk blocker and incubated at room temperature for 1 hour. A rabbit anti-goat IgG (H+L) HRP-conjugated (Bethyl Laboratories, Inc., Montgomery, Tex.) detection antibody was then added at a 1/2000 dilution in blocking solution and incubated for 1 hour at room temperature. After washing with PBS, HRP substrate, 3,3′,5′5-tetramethylbenzidine (ready-to-use TMB; Sigma, St. Louis, Mo.) was added and the reaction was stopped after 10 minutes with 0.5 N H₂SO₄. Absorbance at wavelength of 450 nm was read in a plate reader (model VICTOR V; Perkin Elmer, Boston, Mass.) and data were processed using EXCEL® work sheet.

For B21, the “EC50 (read off the curve)” value was about 0.008 µg/mL.

molecular target: T4, Aβ-derived diffusible ligands (ADDLs); assay: titration ELISA on captured ADDL, A450 nm; Hu20C2A3 produced in Pichia
Experimental: as §1

For B21, the “EC50 (read off the curve)” value was about 0.009 µg/mL.
